US20220339270A1

How the values were obtained:
[1] = target: ePHF tau (tau in the form of paired helical filaments, immobilized on plate) (UniProt P10636); test: ePHF tau ELISA; […]; rep 1
[2] = target: ePHF tau (tau in the form of paired helical filaments, immobilized on plate) (UniProt P10636); test: ePHF tau ELISA; […]; rep 2
[3] = target: ePHF tau (tau in the form of paired helical filaments, immobilized on plate) (UniProt P10636); test: ePHF tau ELISA; 0.5 ng/mL; rep 1
[4] = target: ePHF tau (tau in the form of paired helical filaments, immobilized on plate) (UniProt P10636); test: ePHF tau ELISA; 0.5 ng/mL; rep 2
[5] = target: ePHF tau (tau in the form of paired helical filaments, immobilized on plate) (UniProt P10636); test: ePHF tau ELISA; 4.1 ng/mL; rep 1
[6] = target: ePHF tau (tau in the form of paired helical filaments, immobilized on plate) (UniProt P10636); test: ePHF tau ELISA; 4.1 ng/mL; rep 2
[7] = target: ePHF tau (tau in the form of paired helical filaments, immobilized on plate) (UniProt P10636); test: ePHF tau ELISA; 12.3 ng/mL; rep 1
[8] = target: ePHF tau (tau in the form of paired helical filaments, immobilized on plate) (UniProt P10636); test: ePHF tau ELISA; 12.3 ng/mL; rep 2
[9] = target: ePHF tau (tau in the form of paired helical filaments, immobilized on plate) (UniProt P10636); test: ePHF tau ELISA; 37.0 ng/mL; rep 1
[10] = target: ePHF tau (tau in the form of paired helical filaments, immobilized on plate) (UniProt P10636); test: ePHF tau ELISA; 37.0 ng/mL; rep 2
[11] = target: ePHF tau (tau in the form of paired helical filaments, immobilized on plate) (UniProt P10636); test: ePHF tau ELISA; 111.1 ng/mL; rep 1
[12] = target: ePHF tau (tau in the form of paired helical filaments, immobilized on plate) (UniProt P10636); test: ePHF tau ELISA; 111.1 ng/mL; rep 2
[13] = target: ePHF tau (tau in the form of paired helical filaments, immobilized on plate) (UniProt P10636); test: ePHF tau ELISA; 333.3 ng/mL; rep 1
[14] = target: ePHF tau (tau in the form of paired helical filaments, immobilized on plate) (UniProt P10636); test: ePHF tau ELISA; 333.3 ng/mL; rep 2
[15] = target: ePHF tau (tau in the form of paired helical filaments, immobilized on plate) (UniProt P10636); test: ePHF tau ELISA; 1000.0 ng/mL; rep 1
[16] = target: ePHF tau (tau in the form of paired helical filaments, immobilized on plate) (UniProt P10636); test: ePHF tau ELISA; 1000.0 ng/mL; rep 2
[17] = target: wild-type tau (Tau441) (human) (UniProt P10636); test: ELISA, Tau441 on plate; antibody at […]
wild-type tau (Tau441) (human), sequence (P10636 other isoform, or with tags, fused parts or gaps limits assumed): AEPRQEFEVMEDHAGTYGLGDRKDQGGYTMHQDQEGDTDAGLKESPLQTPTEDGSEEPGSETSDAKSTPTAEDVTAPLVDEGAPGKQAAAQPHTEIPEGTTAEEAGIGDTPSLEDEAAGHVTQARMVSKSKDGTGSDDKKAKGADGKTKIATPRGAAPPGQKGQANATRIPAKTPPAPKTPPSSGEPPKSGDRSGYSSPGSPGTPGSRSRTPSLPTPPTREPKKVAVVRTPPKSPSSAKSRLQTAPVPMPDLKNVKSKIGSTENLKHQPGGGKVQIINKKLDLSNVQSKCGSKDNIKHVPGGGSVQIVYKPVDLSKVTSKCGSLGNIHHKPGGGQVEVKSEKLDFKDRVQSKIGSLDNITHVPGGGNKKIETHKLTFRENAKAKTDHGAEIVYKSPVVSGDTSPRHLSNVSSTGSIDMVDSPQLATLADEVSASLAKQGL

[18] = target: wild-type tau (Tau441) (human) (UniProt P10636); test: ELISA, Tau441 on plate; antibody at 4.1 ng/mL
[19] = target: wild-type tau (Tau441) (human) (UniProt P10636); test: ELISA, Tau441 on plate; antibody at 12.3 ng/mL
[20] = target: wild-type tau (Tau441) (human) (UniProt P10636); test: ELISA, Tau441 on plate; antibody at 37.0 ng/mL
[21] = target: wild-type tau (Tau441) (human) (UniProt P10636); test: ELISA, Tau441 on plate; antibody at 111.1 ng/mL
[22] = target: wild-type tau (Tau441) (human) (UniProt P10636); test: ELISA, Tau441 on plate; antibody at 333.3 ng/mL
[23] = target: wild-type tau (Tau441) (human) (UniProt P10636); test: ELISA, Tau441 on plate; antibody at 1000.0 ng/mL
[24] = target: wild-type tau (Tau441) (human) (UniProt P10636); test: ELISA, Tau441 on plate; antibody at 0.0 ng/mL [sic]
[25] = target: extracellular tau in the form of paired helical filaments (ePHF tau) (UniProt P10636); test: anti-eTau ELISA of ExpiCHO supernatant, concentration of tau-binding antibody
extracellular tau in the form of paired helical filaments (ePHF tau), sequence (P10636 other isoform, or with tags, fused parts or gaps limits assumed): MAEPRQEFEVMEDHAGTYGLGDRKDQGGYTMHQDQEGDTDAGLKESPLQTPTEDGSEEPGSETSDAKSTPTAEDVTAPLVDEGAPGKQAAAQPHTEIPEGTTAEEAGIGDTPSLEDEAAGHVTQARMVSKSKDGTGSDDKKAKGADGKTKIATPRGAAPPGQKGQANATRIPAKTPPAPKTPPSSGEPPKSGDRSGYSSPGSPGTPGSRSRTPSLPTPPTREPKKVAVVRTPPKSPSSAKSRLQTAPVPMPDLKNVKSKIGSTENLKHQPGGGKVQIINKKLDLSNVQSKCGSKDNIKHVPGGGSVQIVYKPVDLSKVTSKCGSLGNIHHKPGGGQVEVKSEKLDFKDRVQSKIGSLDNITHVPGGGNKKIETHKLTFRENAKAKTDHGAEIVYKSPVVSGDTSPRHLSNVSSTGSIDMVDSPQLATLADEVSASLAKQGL

Substance	OD450 [1]	OD450 [2]	OD450 [3]	OD450 [4]	OD450 [5]	OD450 [6]	OD450 [7]	OD450 [8]	OD450 [9]	OD450 [10]	OD450 [11]	OD450 [12]	OD450 [13]	OD450 [14]	OD450 [15]	OD450 [16]	OD450 [17] [OD450]	OD450 [18] [OD450]	OD450 [19] [OD450]	OD450 [20] [OD450]	also measured
PHF-13 (BioLegend monoclonal murine anti-tau phospho Ser396; cat #829001) (antibody)	0	0	0	0	0.1	0	0.1	0.1	0.3	0.3	0.6	0.7	1.2	1.2	1.9	2	–	–	–	–	–
Tau5 (anti-tau, 210-230; BioLegend cat #806401) (antibody)	–	–	–	–	–	–	–	–	–	–	–	–	–	–	–	–	0.2	0.6	1.2	2.6	OD450 [21]: 3.3 OD450; OD450 [22]: 3.3 OD450; OD450 [23]: 3.3 OD450; OD450 [24]: 0.1 OD450
PHF-6 (anti-tau phospho Th231; BioLegend cat #828901) (antibody)	–	–	–	–	–	–	–	–	–	–	–	–	–	–	–	–	0.1	0	0	0	OD450 [21]: 0 OD450; OD450 [22]: 0 OD450; OD450 [23]: 0.1 OD450; OD450 [24]: 0 OD450
Tau5 (BioLegend monoclonal murine anti-tau, 210-230; cat #806401) (antibody)	0.4	0.4	0.1	0.1	0.8	0.9	1.7	2.1	2.6	2.9	3.2	3.2	3.2	3.2	3.2	3.2	–	–	–	–	–
Tau46 (BioLegend monoclonal murine anti-tau, 404-421; cat #806601) (antibody)	0.1	0	0	0	0.2	0.1	0.4	0.4	0.9	1	1.7	2	2.3	2.6	2.8	2.9	–	–	–	–	–
Tau12 (BioLegend monoclonal murine anti-tau, 6-18; cat #806501) (antibody)	1	1	0.4	0.4	2.2	2.4	3.2	3.2	3.2	3.2	3.2	3.2	3.2	3.1	3.2	3.1	–	–	–	–	–
43D (BioLegend monoclonal murine anti-tau, 1-100; cat #816601) (antibody)	0.7	0.8	0.3	0.3	1.7	1.9	3	3.1	3.2	3.2	3.2	3.2	3.2	3.1	3.2	3.1	–	–	–	–	–
PHF-6 (BioLegend monoclonal murine anti-tau phospho Th231; cat #828901) (antibody)	0.2	0.2	0.1	0	0.4	0.5	1.1	1.3	1.9	2.3	2.7	2.9	3	3.1	3.2	3.1	–	–	–	–	–
Tau-13 (anti-tau, 20-35; BioLegend cat #835201) (antibody)	–	–	–	–	–	–	–	–	–	–	–	–	–	–	–	–	0.2	0.5	1.2	2.3	OD450 [21]: 3.1 OD450; OD450 [22]: 3.2 OD450; OD450 [23]: 3.2 OD450; OD450 [24]: 0 OD450
Tau46 (anti-tau, 404-421; BioLegend cat #806601) (antibody)	–	–	–	–	–	–	–	–	–	–	–	–	–	–	–	–	0.2	0.4	1	2	OD450 [21]: 3 OD450; OD450 [22]: 3.2 OD450; OD450 [23]: 3.2 OD450; OD450 [24]: 0.1 OD450
43D (anti-tau, 1-100; BioLegend cat #816601) (antibody)	–	–	–	–	–	–	–	–	–	–	–	–	–	–	–	–	0.4	0.9	2	3	OD450 [21]: 3.2 OD450; OD450 [22]: 3.3 OD450; OD450 [23]: 3.2 OD450; OD450 [24]: 0 OD450
Tau12 (anti-tau, 6-18; BioLegend cat #806501) (antibody)	–	–	–	–	–	–	–	–	–	–	–	–	–	–	–	–	0.4	0.9	2	3.1	OD450 [21]: 3.3 OD450; OD450 [22]: 3.3 OD450; OD450 [23]: 3.3 OD450; OD450 [24]: 0 OD450
PHF1 antibody expressed from viral genome construct TAU_ITR70 (PHF-1 LF2AH) (antibody; other documents disagree on this pair)	–	–	–	–	–	–	–	–	–	–	–	–	–	–	–	–	–	–	–	–	anti-eTau ELISA antibody concentration [25]: 4280 ng/mL
2G9.F10 (BioLegend monoclonal murine anti-tau, 157-168; cat #824601) (antibody)	0.1	0.1	0	0	0.3	0.3	0.7	0.9	1.6	2	2.4	2.8	2.9	3	3.1	3.1	–	–	–	–	–
PHF1 antibody expressed from viral genome construct TAU_ITR86 (PHF-1 LF2AH) (antibody; other documents disagree on this pair)	–	–	–	–	–	–	–	–	–	–	–	–	–	–	–	–	–	–	–	–	anti-eTau ELISA antibody concentration [25]: 1530 ng/mL
2G9.F10 (anti-tau, 157-168; BioLegend cat #824601) (antibody)	–	–	–	–	–	–	–	–	–	–	–	–	–	–	–	–	0.1	0.1	0.2	0.5	OD450 [21]: 0.9 OD450; OD450 [22]: 1.6 OD450; OD450 [23]: 2.2 OD450; OD450 [24]: 0 OD450
PHF-13 (anti-tau phospho Ser396; BioLegend cat #829001) (antibody)	–	–	–	–	–	–	–	–	–	–	–	–	–	–	–	–	0	0	0.1	0	OD450 [21]: 0.1 OD450; OD450 [22]: 0.1 OD450; OD450 [23]: 0.1 OD450; OD450 [24]: 0 OD450
PHF1 antibody expressed from viral genome construct TAU_ITR85 (PHF-1 HF.F2AL) (antibody; other documents disagree on this pair)	–	–	–	–	–	–	–	–	–	–	–	–	–	–	–	–	–	–	–	–	anti-eTau ELISA antibody concentration [25]: 18.8 ng/mL
Tau-13 (BioLegend monoclonal murine anti-tau, 20-35; cat #835201) (antibody)	0.6	0.7	0.2	0.2	1.4	1.8	2.8	3.1	3.2	3.2	3.2	3.2	3.2	3.2	3.2	3.2	–	–	–	–	–
